# Measured values published in the nanobody polyreactivity screen of Harvey et al. (2022).
# Test: yeast display, Sf9 membrane polyspecificity reagent, FACS + sequencing; frameworks hold sequencing errors
# In short: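 Nanobodies came from a synthetic yeast display library in Saccharomyces cerevisiae BJ5465, induced with galactose for 36–48 hours and stained for 1 hour at 4 °C with 10% biotinylated, detergent-solubilized Sf9 membrane reagent. Cells were enriched on streptavidin microbeads and then FACS-sorted, with low and high (top ~1%) gates set on anti-HA fluorescence for expression and streptavidin fluorescence for reagent binding. Each polyreactivity label reflects the gate a clone came from. Genes were amplified by colony PCR, sequenced by MiSeq 2 × 250 and filtered by CDR length.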
row,Sequence,polyreactivity (PSR sort gate)
1,QVQLVESGGGLVQAGGSLRLSCAASGSTFGRNAMGWYRQSPGKERELVAAISSRGGGTYYADSVKGRFTISRDNAKNSVYLQMNSLKPEDTAVYYCAADYVYGYYPKYTYKPSGYWGQGTQVTVTS,high polyreactivity
2,QVQLVESGGGLVQAGGSLRLSCAASGSTFGRYAMGWYRQAPGKERELVAAISRGGSTYYADSVKGRFTISRDNAKNTVYLQMNSLKPEDTAVYYCNKGDSKEYDVYYWGQGTQVTVSS,low polyreactivity
3,QVQLVESGGGLVQAGGSLRLSCAASGSTFGRYAMGWYRQAPGKERELVAAISRGTTTNYADSVKGRFTFSRDIAKNTVYLQMNSLKPVDTAVYYCAAESPSVFDGYAQLYIILEDYWGQGTQVTVSS,low polyreactivity
4,QVQLVESGGGLVQAGGSLRLSCAASGSTFGRYAMGWYRQAPGKERELVAGITSSGRTNYADSVKGRFTISRDNAKNTVYLQMNSLKPEDTAVYYCAKRWLRYGYRYDYWGQGTQVTVSS,high polyreactivity
5,QVQLVESGGGLVQAGGSLRLSCAASGSTFGRYAMGWYRQARGKERELVAAISYGDGSTYYADSVKGRFTISRDYAKNTVYLQINSLIPEDTAVYYCATETETYSCWDPVWADDYDYWGQGTQVTVSS,low polyreactivity
6,QVQLVESGGGLVQAGGSLRLSCAASGSTFGRYAMVWYRQAPGKEREFVAGITGRGGSTYYADSVKGRFTISRDNAKNTVYLQMKSLKPEVNAVYYSAAGYRVGYRYDYWGQCTQVTVSS,high polyreactivity
7,QVQLVESGGGLVQAGGSLRLSCAASGSTFGRYVMGWYRQAPGKERELVAAISKNAGSTYYADSVKGRFTISRDNAKNTVYLQMNSLKPEDTAVYYCAADWRTKGYDSLGQGTQVTVSS,high polyreactivity
8,QVQLVESGGGLVQAGGSLRLSCAASGSTFGRYVMGWYRQAPGKEWELVAAISGSGGSTYYADSVKGRFTISRDNAKNTVDLQMNSLKPEDTAVYYCAAGGPTYELYRRGYWGQGTQVTVSS,high polyreactivity
9,QVQLVESGGGLVQAGGSLRLSCAASGSTFGSYAMGWYRPAPGKERELVAAISYSGGSTYYADSVKGRFTISRDNAKNTVYLQMNSLKPEDTAVYYCATVRKYRAMVYWGQGTQVTVSS,high polyreactivity
10,QVQLVESGGGLVQAGGSLRLSCAASGSTFGSYAMGWYRQAPGKERELVAAISRAGSTYADSVKGRFTISRDNAKNTVYLQMNSLKPEDTAVYYCAKRDNALYYGYDYWGQGTQVTVSS,low polyreactivity
11,QVQLVESGGGLVQAGGSLRLSCAASGSTFGSYAMGWYRQAPGKERELVAAITASGGSTYYADSVKGRFTISRDNAKNTVYLQMNSLKPEDTAVYYCAADTTYIPLSIEYDYWGQGTQVTVSS,low polyreactivity
12,QVQLVESGGGLVQAGGSLRLSCAASGSTFGSYAMGWYRQAPGKERELVAAITQIGGSTYYADSVKGRFTISRDNAKNTVYLQMNSLKPEDTEVYYCAVTAGRGGYPQGGVTRGYWGQGTQVTVSS,high polyreactivity
13,QVQLVESGGGLVQAGGSLRLSCAASGSTFGSYVMGWYRQAPGKERELVAAISGSGGSTYYADSVKGRFTISRDNAKNTVYLQMTSLKPEDTAVYYCAAYVFFPWYGYWGQGTQVTVSS,high polyreactivity
14,QVQLVESGGGLVQAGGSLRLSCAASGSTFGTNAMGWSRQAPGKERELVAAITYSGGSTYYADSVKGRFTISRDNAKNTVYVQLNSLKPEDTAVYYCAARGHSSKYLWSYEYYYWGQGTQVTVSS,low polyreactivity
15,QVQLVESGGGLVQAGGSLRLSCAASGSTFGTNVMGWYRQAPGKERELVAAISNGGSTNYADSVKGRFTISRDNAKNTVYLQMNSLKPEDTAVYYCEYDYWGQGTQVTVSS,low polyreactivity
16,QVQLVESGGGLVQAGGSLRLSCAASGSTFGTYAMGWYRQAPGKERELVAAISWSGGSTYYADSVKGRFTISRDKAKNTVYLQMNSLKPEDTAVYWGQGTQVTVSS,low polyreactivity
17,QVQLVESGGGLVQAGGSLRLSCAASGSTFGTYAMGWYRQAPGKERELVATISIGGITYYADSVKGRFTISRDNAKYTVYLQMNSLKPEDTAVYYCAKDVTDPTSRSDPSGDDYWGQGTQVTVSS,low polyreactivity
18,QVQLVESGGGLVQAGGSLRLSCAASGSTFGVNAMGWYRPAPGKERELVAAISSSGSSTYADSVKGRFTISRDNAKNTVYLQMNSLKPEDTAVYYCNKTTLLTVEYDYWGQGTQVTVSS,low polyreactivity
19,QVQLVESGGGLVQAGGSLRLSCAASGSTFGVNAMGWYRQAPGKERELVAVITRSGGSTYYADSVKGRFTISRDNAKNTFNLQMNSLKPEDSAVYYCNTEGGRDTAWYDYWGQGTEVTVSS,low polyreactivity
20,QVQLVESGGGLVQAGGSLRLSCAASGSTFGVNDMGWYRQAPGKEREFVADITTSGGSTYYADSVKGRFTISRDHAKNTVYLQMNSLKPEDTAVYYCAADLWPFEHDDYWGQGTQVTVSS,low polyreactivity
21,QVQLVESGGGLVQAGGSLRLSCAASGSTFGVYAMGWYRQAPGKERELVAAITKRGGDTYYADSVKGRFTISRDNAKNTVYLQMNSLKPEDTAVYYCAAGLYVSYYWYDYWGQGTQVTVSS,high polyreactivity
22,QVQLVESGGGLVQAGGSLRLSCAASGSTFGVYAMGWYRQAPGKERELVARITSGGSTYYADSVKGRFTITRDNAKKTVYLQRNSLKPEDTAVYYCAAVYRRTRSWKFDYWGQGTQVTVAS,high polyreactivity

row,Sequence,polyreactivity (PSR sort gate)
1,QVQLVESGGGLVQAGGSLRLSCAASGSTFGVYTMGWYRQAPGKERELVAAITKSGGSTYYADSVKGRFTISRDNAKNTVYLQMNSLKPEDTAVYYCAADATSPLTWFDYWGQGTQVTVSS,low polyreactivity
2,QVQLVESGGGLVQAGGSLRLSCAASGSTFGWNAMGSYRQAPGKERELVAAISSSGGITYYADSVKGRFTISRDNAKNTVYLQMNSLKPEDTAVYYCAARAINTWFRSGVDYGYYLTMDYWGQGTQVTVSS,low polyreactivity
3,QVQLVESGGGLVQAGGSLRLSCAASGSTFGWNAMGWYRPAPGKERELVAAISSSGGSTNYADSVKGRFTISRDNAKNTVYLQMNSLKPEDTAVYYCAARYRTLTKYYWGQGTQVTVSS,low polyreactivity
4,QVQLVESGGGLVQAGGSLRLSCAASGSTFGWNAMGWYRQAPGKERELVAAINKSGGRTYYADSVKGRFTISRDNGKNTVYLQMNRLKPEDTAVYYCAAVTPIRVTSPDYDYWGQGTQVTVSS,low polyreactivity
5,QVQLVESGGGLVQAGGSLRLSCAASGSTFGWYGMGWYRQAPGKERELVASIRWSGGITYYADSVKGRFTISRDNAKNTVYLQMNSLKPEDTAVYSCAARTYRYFGRYDYWGQGTQVTVSS,high polyreactivity
6,QVQLVESGGGLVQAGGSLRLSCAASGSTFGYNAMGWYRQAPGKERELVAAISYSGGSTSYADSVKGRFTLSRDNEKNTVYVQMNSLKPVDAAVYYCARESYSQYSSQALEGYGYWGQGTQVTVSS,low polyreactivity
7,QVQLVESGGGLVQAGGSLRLSCAASGSTFGYNGMGWYRQAPGKERELVAAISGGARTYADSVKGRFTISRDNAKNTVYLQMNSLKPEDTAVYYCAADSPVSVTADDGYWGQGTQVTVSS,low polyreactivity
8,QVQLVESGGGLVQAGGSLRLSCAASGSTFGYNTMGWYRQAPGKERELVASITGRGGSTYYADSVKGRFTISRDNAKNTVYLQMNSLKPEDTAVYYCAAAWKAYRRYGYWGQGTQVTVSS,high polyreactivity
9,QVQLVESGGGLVQAGGSLRLSCAASGSTFGYNTMGWYRQAPGKEREWVAAITGTGRTNYADSVKGRFTISRDNAKNTVYLQMNSLKPEDTAVYYCAASLWQRAIGRYEYWGQGTQVTVSS,high polyreactivity
10,QVQLVESGGGLVQAGGSLRLSCAASGSTFGYYAMGWYRQAPGKERELVAAINSGDSTSYAESVKGRFTISRDNAKNTVYLQMNSLKPEDTAVYYCAVRPRRHQYGYWGQGTQVTVSS,low polyreactivity
11,QVQLVESGGGLVQAGGSLRLSCAASGSTFGYYAMGWYRQAPGKERELVAAISVRGGRTYYADSVKGRFTISRDNAKNTVYVQMKSLKPEDTAVYYCATLLPGLGRYGYDYWGQGTQVTVSS,high polyreactivity
12,QVQLVESGGGLVQAGGSLRLSCAASGSTFGYYAMGWYRQAPGKERELVAAITSGGSTYYADSVKGRFTISRDNAKNTVYLQMNSLKPEDTAVYYCNRTYYWYWRYDYWGQGTQVTVSS,low polyreactivity
13,QVQLVESGGGLVQAGGSLRLSCAASGSTFGYYAMGWYRQAPGKERELVASINWRGDSTYYADSVKGRFTISRDNAKNTVYLQMNSLKPEDTAVYYCNVKPSARGSPLYDYWGQGTQVTVSS,high polyreactivity
14,QVQLVESGGGLVQAGGSLRLSCAASGSTFGYYAMGWYRQAPGKERELVASISSRGGSTYYADSVKGRFTISRDNAKNTVYLQMNSLKPEDTAVYSCAARYGGFPVPGRYNYWGQGTQVTVSS,high polyreactivity
15,QVQLVESGGGLVQAGGSLRLSCAASGSTFGYYAMGWYRQAPGKERELVATINRSGGSTYYADSVKGRFTISRDNAKYTVYLQMNSLKPEDTAVYYCNKLAYAGFRYIGSGYWGQGTQVTVSS,low polyreactivity
16,QVQLVESGGGLVQAGGSLRLSCAASGSTFGYYAMGWYRQAPGKERELVATITIGGSTHYADSVKGRFTISRDNAKNTVYLQMNSLKPEDTAVYYCAARYAYYTARYTQVKGLDYWGQGTQVTVSS,high polyreactivity
17,QVQLVESGGGLVQAGGSLRLSCAASGSTFGYYAMGWYRQAPGRERELVAAISYRSGSTYYADSVKGRFTISRDNAKNTVYLQMNSLKPEDTAVYYCAARFGRGSRYYYWGQGTQVTVSS,high polyreactivity
18,QVQLVESGGGLVQAGGSLRLSCAASGSTFGYYTMGWYRQAPGKERELVAAISGSGGRTYYADSVKGRFTISRDNAKKTVNLQMNSLKPEDTAVYYCAAEGRSDWGGDDYYWGQGTQVTVSS,low polyreactivity
19,QVQLVESGGGLVQAGGSLRLSCAASGSTFHANAMGWYRQAPGKERELVAAISRSGGSTNYADSVKGRFTISRDNAKNTVYLQMNSLKPEDTAVYYCAKRAWTGYGYYYWGQGTQVTVSS,high polyreactivity
20,QVQLVESGGGLVQAGGSLRLSCAASGSTFHFYAMGWYRQAPGKERELVASITSRGGNTHYADSVKGRFTISRDNAKNTVYLQMNSLKPEDTAVYYCAARGGWYGTYDYWGQGTQVTVSS,low polyreactivity
21,QVQLVESGGGLVQAGGSLRLSCAASGSTFHINAMGWYRQAPGKERELVADINWSGGSTYYADSVKGRFTISRDNAKNTVYLQMNSLKPEDTAVYYCAADVGVFTYSPYDAGEHDYWGQGTQVTVSS,low polyreactivity
